# Data published in US20260242478A1 (published 2026).
# Where no end group is shown, it is not given here.
# B1: Phage-2563 (peptide)
# peptide: NWKWCIPEWMCAAE
# modifications: cysteine pairing not given here; also: fused to phage pIII, linker and fusion site not given here
# B2: Phage-2571 (peptide)
# peptide: IAKWCIPSWMCAGI
# modifications: cysteine pairing not given here; also: fused to phage pIII, linker and fusion site not given here
# B3: Phage-2604 (peptide)
# peptide: VWQLCIPPWMCQFE
# modifications: cysteine pairing not given here; also: displayed on phage as pIII fusion, linker and pIII sequence not given here
# notes: Clonal phage of the peptide-180 library; not shown: fused to pIII of the bacteriophage
# B4: Phage-2605 (peptide)
# peptide: VMKWCTPSWMCEHI
# modifications: cysteine pairing not given here; also: displayed on phage as pIII fusion, linker and pIII sequence not given here
# notes: as for B3
# B5: Phage-2606 (peptide)
# peptide: VDKWCIPAWMCDRS
# modifications: cysteine pairing not given here; also: displayed on phage as pIII fusion, linker and pIII sequence not given here
# notes: as for B3
# B6: Phage-2607 (peptide)
# peptide: QMKLCIPQWMCVDH
# modifications: cysteine pairing not given here; also: displayed on phage as pIII fusion, linker and pIII sequence not given here
# notes: as for B3
# B7: Phage-2608 (peptide)
# peptide: LHKLCIPEWMCEYY
# modifications: cysteine pairing not given here; also: displayed on phage as pIII fusion, linker and pIII sequence not given here
# notes: as for B3
# B8: Phage-2609 (peptide)
# peptide: MVKWCTPAWMCTLE
# modifications: cysteine pairing not given here; also: displayed on phage as pIII fusion, linker and pIII sequence not given here
# notes: as for B3
# B9: Phage-2610 (peptide)
# peptide: SSMLCIPPWMCEQS
# modifications: cysteine pairing not given here; also: displayed on phage as pIII fusion, linker and pIII sequence not given here
# notes: as for B3
# B10: Phage-2573 (peptide)
# peptide: VDTWCTPPWMCWGL
# modifications: cysteine pairing not given here; also: fused to phage pIII, linker and fusion site not given here
# notes: also called peptide-180 library clone; not shown: fused to the pIII filament protein of the bacteriophage
# B11: Phage-2574 (peptide)
# peptide: TFKWCTPAWMCAGF
# modifications: cysteine pairing not given here; also: fused to phage pIII, linker and fusion site not given here
# notes: Clonal phage displaying the peptide, tested as crude supernatant; also called peptide-180 library clone; not shown: fused to the pIII filament protein of the bacteriophage
# B12: Phage-2575 (peptide)
# peptide: EFKWCTPEWMCAMA
# modifications: cysteine pairing not given here; also: fused to phage pIII, linker and fusion site not given here
# notes: as for B11
# B13: Phage-2576 (peptide)
# peptide: QEKMCIPAWMCSEY
# notes: as for B11
# B14: Phage-2577 (peptide)
# peptide: LTNWCTPSWMCYGL
# notes: as for B11
# B15: Phage-2578 (peptide)
# peptide: LQEWCIPPWMCIKS
# notes: as for B11
# B16: Phage-2579 (peptide)
# peptide: GPKWCTPPWMCWEF
# notes: as for B11
# B17: Phage-2580 (peptide)
# peptide: GVKWCTPAWMCEWT
# notes: as for B11
# B18: Phage-2581 (peptide)
# peptide: SEKWCIPEWMCMYA
# notes: as for B11
# B19: Phage-2582 (peptide)
# peptide: EGKWCIPEWMCISV
# notes: as for B11
# B20: Phage-2583 (peptide)
# peptide: EVMWCRPAWMCDGI
# notes: as for B11
# B21: Phage-2584 (peptide)
# peptide: VVKWCKPAWMCEQA
# notes: as for B11
# B22: Phage-2585 (peptide)
# peptide: DLKRCIPDWMCAVA
# modifications: cysteine pairing not given here; also: fused to phage pIII, linker and fusion site not given here
# notes: as for B11
# B23: Phage-2586 (peptide)
# peptide: ETQMCVPQWMCWGI
# notes: as for B11
# B24: Phage-2587 (peptide)
# peptide: VGKWCVPMWMCATD
# modifications: cysteine pairing not given here; also: fused to phage pIII, linker and fusion site not given here
# notes: as for B11
# Target: T1, PSMA Fab (SEQ ID NOs: 19, 20)
# T1 construct: Biotinylated and captured on neutravidin coated plates in the phage ELISA; also called Anti-PSMA Fab; 006 PSMA Fab
# Assay: phage ELISA; biotinylated PSMA Fab on neutravidin plate, anti-M13 HRP; no PSMA antigen
# Experimental: (§1) Clonal phage were harvested as crude supernatants and screened via standard ELISAs. […] Prior to the addition of clonal phage. wells were incubated with blocking buffer and PSMA antigen or blocking buffer alone. Without washing or aspirating, clonal phage supernatants were then added to the wells and incubated for a short time. Wells were then washed followed by detection of bound phage using a horse radish conjugated anti-M13 antibody.
row,Binder,phage binding ELISA signal
1,WENWCTPTWMCWPN [Phage-2558],1.12
2,WDKWCTPPWMCQVH [Phage-2559],1.12
3,GVMWCIPQWMCVTA [Phage-2560],1.12
4,YAPWCIPLWMCLDR [Phage-2561],1.11
5,IAKLCTPAWMCERH [Phage-2562],1.11
6,B1,1.11
7,SEIWCIPAWMCQST [Phage-2564],1.11
8,VEKWCIPEWMCWTV [Phage-2565],1.11
9,VDPWCKPAWMCLGM [Phage-2566],1.11
10,EPKWCTPPWMCENF [Phage-2567],1.11
11,YDVLCKPDWMCNWN [Phage-2568],1.11
12,AIHWCTPPWMCEPQ [Phage-2569],1.1
13,EGPWCIPEWMCQNS [Phage-2570],1.1
14,B2,1.1
15,QYNWCVPAWMCEIS [Phage-2572],1.1

# Target: T2, PSMA Fab (biotinylated (site not stated))
# T2 construct: also called Anti-PSMA Fab; 006 PSMA Fab
# Assay: clonal phage ELISA on biotinylated PSMA Fab captured on neutravidin plates, anti-M13 HRP detection;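 note: crude clonal phage supernatants tested, before phage were added, wells were pretreated with PSMA antigen in blocking buffer or with blocking buffer only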
row,Binder,"Phage binding ELISA signal, Anti-PSMA Fab"
1,B3,1.03
2,B4,1.03
3,B5,1.03
4,B6,1.03
5,B7,1.03
6,B8,1.02
7,B9,1.02

# Target: T1, PSMA Fab (SEQ ID NOs: 19, 20)
# Assay: phage ELISA; biotinylated PSMA Fab on neutravidin plate, anti-M13 HRP; competitor PSMA antigen pre-incubated
# Experimental: as §1
row,Binder,phage binding ELISA signal
1,WENWCTPTWMCWPN [Phage-2558],0.0834
2,WDKWCTPPWMCQVH [Phage-2559],0.0758
3,GVMWCIPQWMCVTA [Phage-2560],0.104
4,YAPWCIPLWMCLDR [Phage-2561],0.161
5,IAKLCTPAWMCERH [Phage-2562],0.0803
6,B1,0.0635
7,SEIWCIPAWMCQST [Phage-2564],0.0851
8,VEKWCIPEWMCWTV [Phage-2565],0.0709
9,VDPWCKPAWMCLGM [Phage-2566],0.0597
10,EPKWCTPPWMCENF [Phage-2567],0.0576
11,YDVLCKPDWMCNWN [Phage-2568],0.0861
12,AIHWCTPPWMCEPQ [Phage-2569],0.0777
13,EGPWCIPEWMCQNS [Phage-2570],0.0766
14,B2,0.139
15,QYNWCVPAWMCEIS [Phage-2572],0.0848

# Target: T3, PSMA Fab (biotinylated (site not stated))
# T3 construct: also called Anti-PSMA Fab; 006 PSMA Fab
# Assay: clonal phage ELISA on captured PSMA Fab pre-incubated with PSMA antigen (competitor: PSMA), anti-M13-HRP detection
row,Binder,phage binding ELISA signal in presence of PSMA
1,B10,0.0695
2,B11,0.0801
3,B12,0.0845
4,B13,0.0615
5,B14,0.0817
6,B15,0.0797
7,B16,0.331
8,B17,0.0707
9,B18,0.0532
10,B19,0.0637
11,B20,0.0623
12,B21,0.0788
13,B22,0.0617
14,B23,0.0571
15,B24,0.0735

# Target: T2, PSMA Fab
# Assay: clonal phage ELISA on captured PSMA Fab, wells pre-incubated with PSMA antigen as competitor; column meaning inferred
# Experimental: as §1
row,Binder,"Phage binding ELISA signal, Anti-PSMA Fab in presence of PSMA antigen"
1,B3,0.113
2,B4,0.0582
3,B5,0.0604
4,B6,0.0553
5,B7,0.0595
6,B8,0.0801
7,B9,0.0682

# Target: T3, PSMA Fab
# Assay: clonal phage ELISA on biotinylated PSMA Fab captured on neutravidin plates, blocking buffer alone, anti-M13-HRP detection
# Experimental: as §1
row,Binder,phage binding ELISA signal
1,B10,1.09
2,B11,1.09
3,B12,1.09
4,B13,1.09
5,B14,1.09
6,B15,1.09
7,B16,1.08
8,B17,1.08
9,B18,1.08
10,B19,1.08
11,B20,1.07
12,B21,1.07
13,B22,1.07
14,B23,1.07
15,B24,1.06
